# Reference: patent US20180185504A1 (Regeneron, published 2018)
# T1: human PRLR on cells (endogenous on T47D, T47D#11, MCF7); introduced in HEK293/hPRLR/STAT5-Luc, 293/hPRLR, … (human, UniProt P16471 25-622)
# T1 construct: no tag is stated for these lines; also called prolactin receptor
# T1 sequence: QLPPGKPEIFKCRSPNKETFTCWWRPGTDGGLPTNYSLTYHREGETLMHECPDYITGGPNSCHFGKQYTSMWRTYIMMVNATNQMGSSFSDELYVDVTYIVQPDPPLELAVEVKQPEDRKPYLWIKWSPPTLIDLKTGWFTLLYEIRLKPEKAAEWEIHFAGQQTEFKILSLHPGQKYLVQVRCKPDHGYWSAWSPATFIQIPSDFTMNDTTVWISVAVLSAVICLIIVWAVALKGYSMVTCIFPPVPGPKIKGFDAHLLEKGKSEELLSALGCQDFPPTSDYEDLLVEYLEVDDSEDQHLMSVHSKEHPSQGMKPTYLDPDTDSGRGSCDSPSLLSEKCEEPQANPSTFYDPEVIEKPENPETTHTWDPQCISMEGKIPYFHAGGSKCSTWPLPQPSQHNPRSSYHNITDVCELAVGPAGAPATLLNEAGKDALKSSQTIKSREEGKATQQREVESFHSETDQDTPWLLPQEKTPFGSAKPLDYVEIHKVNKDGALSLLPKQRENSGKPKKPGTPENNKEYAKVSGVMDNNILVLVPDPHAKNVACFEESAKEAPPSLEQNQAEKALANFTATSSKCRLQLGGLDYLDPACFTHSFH
# T2: mouse PRLR construct with an HA tag on HEK293/mPRLR cells (mouse, UniProt Q08501 20-608)
# T2 construct: whole, on cells; stably transfected into HEK293
# T2 sequence (looked up): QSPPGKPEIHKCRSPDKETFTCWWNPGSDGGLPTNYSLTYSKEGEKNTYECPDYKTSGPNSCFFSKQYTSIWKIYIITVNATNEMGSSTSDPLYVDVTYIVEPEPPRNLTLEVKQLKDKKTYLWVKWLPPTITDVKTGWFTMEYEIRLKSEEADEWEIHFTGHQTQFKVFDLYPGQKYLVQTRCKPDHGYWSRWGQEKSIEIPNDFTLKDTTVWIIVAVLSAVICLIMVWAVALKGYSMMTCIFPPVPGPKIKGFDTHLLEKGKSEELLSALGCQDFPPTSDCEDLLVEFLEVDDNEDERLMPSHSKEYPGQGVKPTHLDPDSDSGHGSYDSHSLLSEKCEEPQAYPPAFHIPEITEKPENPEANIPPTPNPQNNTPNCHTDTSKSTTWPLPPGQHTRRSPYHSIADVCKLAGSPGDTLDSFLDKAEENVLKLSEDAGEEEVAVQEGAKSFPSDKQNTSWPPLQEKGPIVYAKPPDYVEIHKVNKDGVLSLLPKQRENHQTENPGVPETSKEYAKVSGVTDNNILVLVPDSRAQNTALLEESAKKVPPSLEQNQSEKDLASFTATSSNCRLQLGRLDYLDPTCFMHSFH
# T3: human PRLR construct with an HA tag on HEK293/hPRLR cells (human, UniProt P16471 25-622)
# T3 sequence: T1 sequence
# T4: monkey macaca fascicularis PRLR construct with an HA tag on HEK293/mfPRLR cells (macaca fascicularis, UniProt A0A2K5WXK1 25-619)
# T4 construct: stably transfected into HEK293
# T4 sequence: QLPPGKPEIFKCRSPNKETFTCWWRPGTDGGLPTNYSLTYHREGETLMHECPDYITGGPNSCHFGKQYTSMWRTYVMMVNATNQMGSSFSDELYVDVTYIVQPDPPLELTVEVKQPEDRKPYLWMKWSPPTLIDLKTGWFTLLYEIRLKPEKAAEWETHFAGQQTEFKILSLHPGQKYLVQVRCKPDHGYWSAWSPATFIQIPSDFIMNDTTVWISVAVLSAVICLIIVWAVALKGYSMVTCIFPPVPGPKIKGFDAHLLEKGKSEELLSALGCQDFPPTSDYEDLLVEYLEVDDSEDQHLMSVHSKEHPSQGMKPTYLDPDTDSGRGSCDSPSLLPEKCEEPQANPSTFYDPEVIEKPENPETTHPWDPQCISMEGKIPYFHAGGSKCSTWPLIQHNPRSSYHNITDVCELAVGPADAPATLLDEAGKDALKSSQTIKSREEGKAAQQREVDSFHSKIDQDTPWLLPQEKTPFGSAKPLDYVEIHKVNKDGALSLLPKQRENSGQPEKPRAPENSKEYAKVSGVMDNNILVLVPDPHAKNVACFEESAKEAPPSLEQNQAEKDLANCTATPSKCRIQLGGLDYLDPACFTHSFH
# B1: H1H6803P (antibody, human IgG1, V domains shown)
# VH: EVQLVESGGGVVRPGGSLRLSCAASGFKFDDYGMTWVRHVPGKGLEWVSGINWNGGRTGYTDSVKGRFTISRDNAKNSLYLQMNSLRAEDTALYHCAGARRDAFDIWGQGTMVTVSS
# VL: DIQMTQSPSSLSASIGDRVTITCRASQNIIKYLNWYQQNAGKAPKLLIYTASSLQSGVPSRFSGSGSGTDFTLTISSLQPEDFATYYCQQSSSSPYTFGQGTKLEIK
# notes: human IgG1 Fc (H1H)
# B2: H1H6976N (antibody, human IgG1, V domains shown)
# VH: EVQLLESGGGFVQPGGSLRLSCAASGFTFSSYAMSWVRQAPGKGLEWVSIISSNGRYTYYADSVKGRFTISRDNSKNTLYLQMNSLRAEDTAVYYCATVTGDWFDPWGQGTLVTVSS
# VL: DIQLTQSPSFLSASVGDRVTITCWASQDIDISLAWYQQKPGKAPKLLIYAASTLQSGVPSKFSGSGSGTDFTLTISSLQPEDFSTYYCQQLNSYPITFGQGTRLDIK
# notes: also called H2M6976N
# B3: H1H6782P (antibody, human IgG1, V domains shown)
# VH: EVQLVESGGGLVQPGRSLRLSCAASGFTFDDYAMHWVRQAPGKGLEWVSGIIWNSGHIGYGDSVKGRFTISRDNAKKSLYLQMNSLRAEDTALYYCARDSGRYQSYFDYWGQGTLVTVSS
# VL: DIQMTQSPSTLSASVGDRVTITCRASHIISSWLAWYQQKPGKAPKVLIFKASSLESGVPSRFSGSGSGTEFTLTISSLQPDDFATYYCQQYNTYSRTFGQGTKVEIK
# notes: human IgG1 Fc (H1H)
# B4: H1H6800P (antibody, human IgG1, V domains shown)
# VH: EVQLVESGGGLVQPGRSLRLSCAASGFTFDGYAMHWVRQGPGKGLEWVSGISWYSDTLGYADSVKGRFTISRDNAKNSLYLQMNSLRTEDTAFYYCAKISSSGWAFDYWGQGTLVTVSS
# VL: EIVLTQSPGTLSLSPGERATLSCRASHSVSSAYLAWYQQKPGQTPRLLIYGTSSRATGIPDRFSGSGSGTDFTLTISRLEPEDFAVYYCQQYGSSPLFTFGPGTKVDIK
# notes: human IgG1 Fc (H1H)
# B5: H1H6785P (antibody, human IgG1, V domains shown)
# VH: EVQLVESGGGLVQPGGSLRLSCAASGFTFSSYEMNWVRQAPGKGLEWISYISSRGGTIYYADSIKGRFTIYRDNARNSLYLQMNSLRAEDTAIYYCARLSGVDIFDIWGQGTMVTVSS
# VL: DIQMTQSPSSLSASVGDRVTITCRASQGISNYLAWYQQKPGKVPKLLIYFASTLQSGVPSRFSGGGSGTDFTLTISSLQPEDVATYYCQRYNSAPLTFGGGTKVEIK
# notes: human IgG1 Fc (H1H)
# B6: H1H6762P (antibody, human IgG1, V domains shown)
# VH: QVQLVESGGGVVQPGRSLRLSCAASGFTFSHYGMVWVRQPPGKGLEWVALISFDGTTKYYADSVKGRFTISRDNSKNTLYLQMNSLRAEDTAVYFCVGAIAAAAFDLWGRGTLVTVSS
# VL: EIVMTQSPATLSVSPGERATLSCRASQSVSSDLAWYQQKPGQAPRLLIYSASARATGIPARFTGSGSGTDFTLTISSLQSEDFAVYYCQQYNNWPMYTFGQGTKLEIK
# notes: human IgG1 Fc (H1H)
# B7: H1H6975N (antibody, human IgG1, V domains shown)
# VH: EVHLVESGGGLVQPGGSLRLSCAASGFTFSSYEMNWVRQTPGKGLEWISHISSRSVIIYYADSVKGRFTISRDNAKNSLFLQMNSLRAEDTAVYFCAGITIFGIPEYWGQGTLVTVSS
# VL: EIVLTQSPATLSLSPGERATLSCRASQSVSSYFAWYQQKPGQAPRLLIYDASSRATGIPTRFSGSGSGTDFTLTISSLEPEDFAVYYCQQRSSWPITFGQGTRLEIK
# notes: also called H2M6975N
# B8: H1H6765P (antibody, human IgG1, V domains shown)
# VH: EVQLVESGGGVVRPGGSLRLSCVGSGFSFDDHGMNWVRQGPGKGLEWVSGFNWNGGSTNYAESVKGRFTISRDNARNSLFLQMNSLRAEDTALYYCVRGRSGWFNDAFDVWGPGTMVTVSS
# VL: EIVLTQSPGTLSLSPGERATLSCRASQTINSNYLAWYRQKPGQTPRLLIYGTSSRATGIPDRFSGSGSGTDFSLTISRLEPEDFAVFYCQQYAGLPTFGPGTKVDIK
# notes: human IgG1 Fc (H1H)
# B9: H1H6793P (antibody, human IgG1, V domains shown)
# VH: EVQLVESGGGLVQPGGSLRLSCAASGFSFSIYAMSWFRQAPGKGLEWVSAINGRGDGTHYADSVKGRFTISRDNSKTTLYLQMSSLRAEDTAVYYCAKPVMSTNGFDIWGQGTMVTVSS
# VL: DIQMTQSPSTLSASVGDRVTITCRASQSISSWLAWYQLKPGKAPKLLIYKASNLESGVPSRFSGSGSGTEFTLTISSLQPDDFATYYCQQYNIYWTFGQGTKVEIK
# notes: human IgG1 Fc (H1H)
# Biological target: T1, human PRLR on cells (endogenous on …)
# Assay: FACS on T47D cells
row,FACS Cell Binding (Fold Above Background) [fold],Binder
1,39,B1
2,37,B2
3,41,B4
4,40,B5
5,38,B6
6,46,B7
7,43,B9

row,Binder,FACS Cell Binding (Fold Above Background) [fold]
1,B3,43
2,B8,40

# Biological target: T1, human PRLR on cells (endogenous on …)
# Assay: cell-based or functional assay
row,"% Internalization relative to Control I (T47D cells, imaging) [%]",Binder
1,190,B1
2,170,B2
3,198,B4
4,169,B5
5,186,B6
6,214,B7
7,180,B9

row,Binder,"% Internalization relative to Control I (T47D cells, imaging) [%]"
1,B3,179
2,B8,186

# Biological target: T2, mouse PRLR construct with an HA tag on …
# Assay: FACS on HEK293/mPRLR cells
row,FACS Cell Binding (Fold Above Background) [fold],Binder
1,1,B1
2,1,B2
3,1,B4
4,2,B5
5,2,B6
6,1,B7
7,2,B9

row,Binder,FACS Cell Binding (Fold Above Background) [fold]
1,B3,4
2,B8,1

# Biological target: T3, human PRLR construct with an HA tag on …
# Assay: FACS on HEK293/hPRLR cells
row,FACS Cell Binding (Fold Above Background) [fold],Binder
1,39,B1
2,8,B2
3,35,B4
4,37,B5
5,36,B6
6,38,B7
7,2,B9

row,Binder,FACS Cell Binding (Fold Above Background) [fold]
1,B3,41
2,B8,38

# Biological target: T1, human PRLR on cells (endogenous on …)
# Assay: imaging of alexa488 intensity on T47D cells
# Description: Briefly, 20,000 T47D cells were seeded in collagen coated 96 well plates. […] Cells were then incubated with alexa488 conjugated anti-hFc Fab secondary antibodies for 30 minutes on ice followed by two additional PBS washes. Antibodies were allowed to internalize for 1 h at 37° C. in internalization buffer (PBS+2% FBS) or remained at 4° C. Cells were fixed in 4% formaldehyde, nuclei were stained with DRAQ5 (Cell signaling), and images were acquired on the ImageXpress micro XL (Molecular Devices). Whole cell alexa488 intensity at 37° C. (Binding) and the alexa488 intensity in the intracellular vesicles at 37° C. (Internalization) were determined via Columbus image analysis software (PerkinElmer).
row,% Total Binding relative to Control I [%],Binder
1,206,B1
2,180,B2
3,187,B4
4,168,B5
5,177,B6
6,226,B7
7,178,B9

row,Binder,% Total Binding relative to Control I [%]
1,B3,210
2,B8,191

# Biological target: T4, monkey macaca fascicularis PRLR …
# Assay: FACS on HEK293/mfPRLR cells
row,FACS Cell Binding (Fold Above Background) [fold],Binder
1,28,B1
2,29,B2
3,29,B4
4,26,B5
5,26,B6
6,29,B7
7,32,B9

row,Binder,FACS Cell Binding (Fold Above Background) [fold]
1,B3,32
2,B8,27
